According to patent publication US20150267176:

Assays:
[1] = tested on: SCL enhancer TALE-3X FLAG; settings: anti-FLAG ChIP-seq in K562, input 1; top ranked and only reproducible peak; exact SCL target not identified in text (candidates SEQ 9, 11, 37)
[2] = tested on: SCL enhancer TALE-LSD1; assay: cell_activity; settings: K562 ChIP-qPCR vs mCherry; H3K27ac reduced >4-fold
[3] = tested on: TALE-LSD1 #11 (ZFPM2 +16); assay: cell_activity; settings: expression change not significant; histone modification levels at target reduced; +16 matched to #11 by coordinates
[4] = tested on: TALE-LSD1 #25 (ZFPM2 +10); assay: cell_activity; settings: K562 RT-qPCR; +10 enhancer matched to #25 by coordinates; also reduces enhancer histone marks
[5] = tested on: TALE-LSD1 #28 (ZFPM2 +45); assay: cell_activity; settings: expression change not significant; histone modification levels at target reduced; +45 matched to #28 by coordinates

SCL enhancer 18 bp TALE target (18/18) was tested, and the binding signal (tags per 1 kb bin) [1] was 17.5 and the activity (fold reduction of H3K4me2) [2] was 3.

TALE #11 target chr8:106,347,824 showed an activity (% reduction of ZFPM2 expression) [3] of 13.

Work on TALE #25 target chr8:106,341,287 yielded an activity (fold reduction of ZFPM2 expression) [4] of 2.

With TALE #28 target chr8:106,376,850 the activity (% reduction of ZFPM2 expression) [5] was 22.
